As usually defined, the Kd is the free concentration of one partner at which half of the binding sites on the other are occupied at equilibrium, for simple one-to-one binding. A low value points to higher affinity.

For one sequence, Kd results are on record in PMC3784511.

The series concerns the target T1, NF-kB p50 homodimer (UniProt P19838).
T1 sequence: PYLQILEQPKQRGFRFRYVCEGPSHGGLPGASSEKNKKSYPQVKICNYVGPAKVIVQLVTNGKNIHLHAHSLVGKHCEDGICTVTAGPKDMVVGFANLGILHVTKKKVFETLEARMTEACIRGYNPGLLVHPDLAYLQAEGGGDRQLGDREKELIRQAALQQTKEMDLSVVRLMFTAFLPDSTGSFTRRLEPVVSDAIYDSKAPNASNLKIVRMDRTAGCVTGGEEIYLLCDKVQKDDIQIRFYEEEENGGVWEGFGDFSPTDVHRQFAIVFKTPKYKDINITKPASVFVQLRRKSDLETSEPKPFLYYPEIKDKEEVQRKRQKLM
The series is described as follows: UV laser footprinting. To be noted: 10 mM Tris pH 7.4, 75 mM NaCl, 1 mM EDTA, 1 mM DTT, 100 ug/ml BSA, 0.01% NP40 (omitted in dilution experiments), 5% glycerol, 37 C; naked DNA supplemented with ….

In turn, “GCTCGGAATTCTATCCGACTGGCACCGGCAAGGTCGCTGTTCAATACATGCACAGGATGTATATATCTGACACGTGCCTGGAGACTAGGTAGTAATTCTCTTGGCGGTTAAAACGCGGTGTACAGCGCGTACGTGCGTTTAAGCGGTGCTAGAGCTTGCTACGACCAATTGAGCGGCCTCGGCACGGGGATTCCCCAGGTCGGCCGCGTATAGTGTCCATCACATAAGTGATGAACTCGGTCTTAAGAATCATGC (double strand) [601_D7 DNA (255 bp)]” showed a Kd of 14 nM.
